Test results reported in the supplement of paper PMC10567573.

B1: RHOBTB2 (parent)
chain: NQEITKAFHVRRTNRVKECLAKGT
B2: RHOBTB3 (parent)
chain: VSHVFMLLFNVKSPTDIQDSSIIR

Variants of: B1
Assay: protein stability index of a GFP-peptide fusion (GPS, HEK-293T) (PSI 1-6); higher = more stable
Conditions: c terminus: a fixed tail appended
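Note: lentivirally expressed fusions sorted by FACS into six bins by GFP to DsRed ratio, PSI derived from sequencing read proportions per bin multiplied by bin number.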

Row | Variant | protein stability index
1 | Q2F | 3.01
2 | Q2G | 2.39
3 | Q2W | 2.69
4 | Q2A | 3.21
5 | Q2Y | 3.31
6 | Q2R | 2.83
7 | Q2K | 3.78
8 | Q2H | 3.53
9 | Q2M | 3.01
10 | Q2L | 2.4
11 | Q2N | 3.42
12 | Q2T | 3.74
13 | Q2D | 4.2
14 | H9W | 2.5
15 | H9G | 4.27
16 | H9R | 2.87
17 | H9A | 2.45
18 | K17W | 2.3
19 | K17D | 3.64
20 | K17F | 2.06
21 | K17Y | 2.36
22 | V10Q | 3.84
23 | V10D | 4.25
24 | V10E | 4.71

Row | Variant | protein stability index
25 | V10K | 4.42
26 | V10H | 4.46
27 | V10W | 3.35
28 | F8Q | 4.48
29 | F8W | 2.94
30 | F8P | 4.53
31 | F8R | 4.67
32 | F8M | 4.77
33 | F8I | 4.37
34 | F8G | 4.63
35 | F8T | 4.5
36 | F8A | 4.6
37 | E3W | 3.8
38 | E3P | 3.38
39 | E3K | 3.06
40 | E3Y | 2.23
41 | E3L | 3.66
42 | E3R | 3.02
43 | K22T | 3.74
44 | K22M | 2.73
45 | K22S | 3.86
46 | K22N | 3.18
47 | K22Q | 3.28
48 | K22R | 3.67

Row | Variant | protein stability index
49 | K22C | 3.3
50 | K22P | 3.04
51 | K22I | 2.58
52 | K22A | 4.19
53 | K22W | 2.06
54 | T13S | 3.96
55 | T13W | 2.02
56 | T13N | 3.54
57 | T13L | 3.32
58 | T13H | 3.36
59 | T13Q | 3.93
60 | T13C | 2.78
61 | T13K | 2.79
62 | T13I | 2.1
63 | T13Y | 1.78
64 | T13P | 3.98
65 | L20V | 4.62
66 | L20N | 3.27
67 | L20E | 4.03
68 | L20G | 2.97
69 | L20M | 3.59
70 | L20P | 2.39
71 | L20K | 3.83
72 | I4L | 3.51

Row | Variant | protein stability index
73 | I4R | 3.72
74 | I4W | 3.21
75 | I4P | 4.43
76 | I4M | 4.25
77 | I4T | 5.01
78 | I4G | 4.42
79 | I4H | 4.13
80 | A7P | 4.3
81 | A7L | 2.85
82 | A7D | 3.82
83 | A7K | 3.51
84 | A7M | 2.48
85 | A7Y | 2.29
86 | A7W | 3.34
87 | A7H | 2.52
88 | T5G | 2.21
89 | T5Y | 3.46
90 | T5K | 4.06
91 | T5C | 2.04
92 | T5R | 3.7
93 | T5H | 4.29
94 | T5V | 3.51
95 | T5S | 3.48
96 | A21Y | 2.83

Row | Variant | protein stability index
97 | A21M | 2.23
98 | A21K | 3.15
99 | A21L | 2.61
100 | A21P | 3.38
101 | A21T | 3.73
102 | R12Y | 2.67
103 | R12W | 2.38
104 | R12M | 3.29
105 | R12Q | 3.93
106 | R12A | 4.05
107 | R12T | 3.69
108 | R12E | 4.16
109 | R12G | 4.51
110 | K6E | 4.03
111 | K6R | 2.87
112 | K6Q | 3.18
113 | N1V | 3.07
114 | N1L | 2.31
115 | N1Q | 3.87
116 | N1W | 2.45
117 | N1E | 4.01
118 | N1I | 1.59
119 | N1A | 4.01
120 | N1P | 4.54

Row | Variant | protein stability index
121 | C19W | 2.35
122 | C19K | 3.46
123 | C19P | 3.11
124 | C19T | 3.65
125 | C19V | 3.08
126 | C19D | 3.13
127 | C19M | 2.78
128 | V16C | 2.51
129 | V16I | 2.91
130 | V16R | 3.21
131 | V16N | 3.41
132 | V16F | 2.48
133 | V16P | 4.09
134 | R11F | 3.62
135 | R11I | 2.43
136 | R11W | 2.61
137 | R11D | 4.01
138 | R11Y | 2.94
139 | R11C | 3
140 | G23Y | 2.26
141 | G23P | 3.25
142 | G23Q | 2.99
143 | G23F | 2.07
144 | G23A | 2.73

Row | Variant | protein stability index
145 | N14H | 3.43
146 | N14T | 2.95
147 | N14I | 3.58
148 | N14A | 4.05
149 | T24I | 2.16
150 | T24K | 3.88
151 | T24A | 3.55
152 | T24N | 3.36
153 | T24D | 3.46
154 | T24L | 3.53
155 | E18Q | 2.87
156 | E18I | 1.94
157 | E18R | 2.74
158 | E18Y | 2.67
159 | E18S | 2.59
160 | R15A | 3.66
161 | R15C | 3.27
162 | R15V | 3.73
163 | R15L | 3.36
164 | R15T | 3.87
165 | R15M | 3.78

Variants of: B2
Assay: as above
Conditions: c terminus: a fixed tail appended

Row | Variant | protein stability index
166 | S2Y | 2.75
167 | S2L | 3.13
168 | S2G | 2.58
169 | S2F | 3.6
170 | S2N | 2.84
171 | S2A | 2.55
172 | S2W | 2.82
173 | S2D | 2.44
174 | S2K | 3.57
175 | S2M | 3.95
176 | S2V | 3.75
177 | V11Q | 1.82
178 | V11D | 1.23
179 | V11F | 2.74
180 | V11E | 2.08
181 | V11L | 4.23
182 | V11R | 3.03
183 | V11I | 3.24
184 | V11W | 2.83
185 | V11N | 3.13
186 | V11P | 2.94
187 | V11S | 3.03
188 | V11C | 3.03
189 | V11G | 3.8
190 | V11H | 3.04

Row | Variant | protein stability index
191 | V11M | 3.81
192 | H3M | 1.78
193 | H3G | 3.65
194 | H3W | 3.07
195 | H3D | 2.38
196 | H3S | 2.28
197 | H3R | 2.1
198 | H3P | 1.52
199 | H3V | 3.75
200 | H3Q | 2.51
201 | H3L | 2.69
202 | H3E | 1.42
203 | F5I | 2.31
204 | F5D | 2.29
205 | F5V | 3.38
206 | F5G | 1.19
207 | F5T | 1.71
208 | F5S | 1.95
209 | F5K | 1.84
210 | F5Y | 3.79
211 | F5A | 1.5
212 | F5M | 1.44
213 | F5P | 2.04
214 | F5R | 1.41
215 | F5N | 1.97

Row | Variant | protein stability index
216 | F5H | 2.29
217 | F5Q | 1.95
218 | F5E | 2.3
219 | F5L | 4.65
220 | F5C | 2.99
221 | N10I | 2.19
222 | N10T | 2.15
223 | N10P | 2.3
224 | N10D | 3.9
225 | N10H | 3.06
226 | N10L | 3.27
227 | N10A | 2.47
228 | N10V | 2.13
229 | N10W | 3.77
230 | N10C | 1.43
231 | N10G | 2.24
232 | V4N | 1.19
233 | V4Y | 1.61
234 | V4T | 2.54
235 | V4M | 2.52
236 | V4R | 3.04
237 | V4K | 1.97
238 | V4S | 1.89
239 | V4F | 4.42
240 | V4C | 4.79

Row | Variant | protein stability index
241 | V4P | 2.12
242 | V4W | 2.46
243 | V4E | 1.3
244 | V4Q | 3.13
245 | V4D | 2.16
246 | V4G | 2.28
247 | L8N | 2.46
248 | L8P | 2.34
249 | L8D | 1.81
250 | L8G | 2.55
251 | L8S | 2.78
252 | L8C | 2.23
253 | L8Q | 2.75
254 | L8H | 2.23
255 | L8E | 1.36
256 | L8M | 2.95
257 | L8K | 2.71
258 | L8F | 2.22
259 | L7V | 2.34
260 | L7I | 2.99
261 | L7Q | 2.23
262 | L7N | 2.25
263 | L7S | 1.72
264 | L7P | 2.18
265 | L7Y | 2.77

Row | Variant | protein stability index
266 | L7G | 2.25
267 | L7F | 3.17
268 | L7M | 2.37
269 | L7H | 3.82
270 | L7T | 2.73
271 | L7W | 2.9
272 | L7D | 1.93
273 | L7A | 1.74
274 | L7E | 2.13
275 | L7K | 1.59
276 | L7C | 2.94
277 | L7R | 2.4
278 | F9P | 1.55
279 | F9R | 2.74
280 | F9E | 2.21
281 | F9G | 1.69
282 | F9T | 1.57
283 | F9Y | 4.01
284 | F9D | 1.45
285 | F9A | 1.92
286 | F9H | 1.63
287 | F9I | 2.62
288 | F9N | 1.93
289 | F9C | 2.44
290 | F9W | 3.94

Row | Variant | protein stability index
291 | F9S | 2.61
292 | F9K | 2.21
293 | F9L | 3.21
294 | F9Q | 1.5
295 | V1S | 2.88
296 | V1E | 2.08
297 | V1P | 3.42
298 | V1I | 3.46
299 | V1W | 3.32
300 | V1Q | 2.22
301 | V1A | 2.98
302 | V1N | 1.89
303 | V1F | 2.54
304 | V1L | 1.33
305 | V1M | 3.38
306 | V1D | 2.05
307 | V1K | 1.05
308 | K12I | 3.28
309 | K12M | 3.63
310 | K12H | 2.15
311 | K12C | 1.55
312 | K12L | 1.46
313 | K12A | 5.33
314 | K12D | 2.5
315 | K12G | 3.36

Row | Variant | protein stability index
316 | K12E | 1.8
317 | M6N | 2.98
318 | M6H | 2.87
319 | M6S | 2.2
320 | M6L | 3.66
321 | M6E | 2.43
322 | M6Y | 3.18
323 | M6F | 3.03
324 | M6D | 2.26
325 | M6V | 3.62
326 | M6I | 2.83
327 | M6P | 1.59
328 | M6R | 1.77
329 | M6C | 1.98
330 | M6T | 2.99
331 | M6A | 3
332 | M6Q | 2.24
333 | M6K | 1.42
334 | M6G | 2.29
